The text below walks through data of patent CN116813757A (INST MICROBIOLOGY CAS, dated 2023).

The experiment deals with SARS-CoV-2原始毒株的RBD蛋白 (SARS-CoV-2 RBD-his蛋白) (SARS-CoV-2 original strain, UniProt P0DTC2 319-541).

B1: 单链纳米抗体R14 (R14-his蛋白) (VHH)
VHH: QVQLQESGGGLVQPGGSLRLSCAVSGFTLDYYAIGWFRQAPGKEREGVSCISSSDGSTSYADSVKGRFTISRDNAKNTVYLQMNSLKPEDTALYYCAATPATYYSGRYYYQCPAGGMDYWGQGTQVTVSS
Consider B1, for which the Kd is under 0.1 nM.

As usually defined, the Kd is a measure of binding affinity in units of concentration.
